Results on one molecule are retold here after patent US20050144671A1 (ARIZONA BD OF REGENTS BEHALF OF UNIV OF ARIZONA, published 2005).

The experiment deals with T1, S-tag-ABI2 (full-length ABI2 cloned in pCITE4a, in vitro translated) (UniProt O04719 1-423).
T1 construct: also called S-tagged ABI2; not shown: S-tag encoded by pCITE4a
T1 sequence (looked up): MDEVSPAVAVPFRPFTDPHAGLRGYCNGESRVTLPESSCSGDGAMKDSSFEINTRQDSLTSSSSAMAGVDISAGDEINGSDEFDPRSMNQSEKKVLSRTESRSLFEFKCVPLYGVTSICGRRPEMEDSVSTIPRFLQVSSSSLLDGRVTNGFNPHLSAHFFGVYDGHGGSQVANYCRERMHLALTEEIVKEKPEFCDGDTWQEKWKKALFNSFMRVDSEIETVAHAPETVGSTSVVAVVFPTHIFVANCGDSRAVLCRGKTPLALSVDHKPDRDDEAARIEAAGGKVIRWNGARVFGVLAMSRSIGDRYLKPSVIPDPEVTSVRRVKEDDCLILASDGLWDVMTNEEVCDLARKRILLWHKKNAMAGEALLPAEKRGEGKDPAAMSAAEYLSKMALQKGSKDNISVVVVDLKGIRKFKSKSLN
The experiment is described as follows: in vitro S-tag pull-down of 35S-labeled Snow1. The procedure: In-vitro pull down assay: In-vitro pull-down assays were conducted to confirm the physical interaction of Snow1 and Ice1. Full-length snow1 cloned in pGEM-T easy and AtMyb79 (cloned in EcoR I and Xho I sites of pBCSK Stratagene) were used. Full-length Ice1 and ABI2 were cloned in EcoRI/SalI and NcoI/EcoRI sites of pCITE4a. 2 μg each of the linearized plasmid were in vitro transcribed using Megascript T7 RNA polymerase kit (Ambion). 10 μg of the purified transcript of snow1 and AtMyb79 were in vitro translated using Flexi Rabbit Reticulocyte system (Promega) in presence of ³⁵S-methionine. S-tag-Ice1 and S-tag-ABI2 transcripts were translated in absence of ³⁵S-methionine and their proteins were purified using S-tag purification kit (Novagen) as per the manufacturer's instructions. S-Tag Ice1 and S-tag ABI2 bound on the S-Tag slurry were used to pull down ³⁵S-labeled proteins. In another experiment ³⁵S-labeled S-tag Ice was produced and was used for pull-down using either GST-Snow1 or GST-Myb79 proteins. Pull-down assays were conducted as described (Haftler et al 2000).

B1: 35S-labeled Snow1 (full-length snow1 in pGEM-T easy, in vitro transcribed and translated) (other)
chain: MGRAPCCEKMGLKRGPWTPEEDQILVSFILNHGHSNWRALPKQAGLLRCGKSCRLRWMNYLKPDIKRGNFTKEEEDAIISLHQILGNRWSAIAAKLPGRTDNEIKNVWHTHLKKRLEDYQPAKPKTSNKKKGTKPKSESVITSSNSTRSESELADSSNPSGESLFSTSPSTSEVSSMTLISHDGYSNEINMDNKPGDISTIDQECVSFETFGADIDESFWKETLYSQDEHNYVSNDLEVAGLVEIQQEFQNLGSANNEMIFDSEMELLVRCIGICE
modifications: 35S-methionine label
In the case of B1, the binding result is recorded as “no binding”.
